Results as given in patent US20140155331A1 (published 2014).
Where no end group is shown, it is not given here. [ ]: non-standard residue; d: D form. Aib = CC(C)(N)C(=O)O

B1: S100B (other)
chain: MSELEKAMVALIDVFHQYSGREGDKHKLKKSELKELINNELSHFLEEIKEQEVVDKVMETLDNDGDGECDFQEFMAFVAMVTTACHEFFEHE
B2: pBDC-TRTK (pBM-TRTK dimerised with a properly designed crosslinker) (peptide)
peptide: fluorescein-TRTKIDW[Aib]KIL[Aib]GGGCG
modifications: not fully specified (residue 16); also: homodimer: two copies joined at Cys16 through BMH, linker at 16 via BMH, other end not in the chain

Legend:
[1] = biological target: pBDC-53; assay: fluorescence anisotropy
[2] = biological target: B1; assay: fluorescence anisotropy

Binder | Kd [1] [nM] | Kd [2] [nM]
B1 | 267 | 
B2 |  | 32
fluorescein-QST[Aib]RH[Aib]KLMFKT[Aib]G [pBM-53 (Aib substituted p53 monomer peptide)] |  | 4600
